In patent US20180127498A1 (UCB, published 2018) one finds kon, Kd and koff data, which are given here for one molecule.

Where “and” joins values, the source holds several entries; their conditions need not be identical. Equal values may be shown once.

Test [1] has as its target T1, Human FcRn extracellular domain (non-covalent complex of human FcRn alpha chain extracellular domain and … (human, UniProt P55899 24-297; P61769 21-119).
T1 construct: also called hFcRn
In words: SPR Biacore T200, binder captured via anti-human F(ab')2, FcRn ECD as analyte, pH6; pH 6. Here is the method:
(§1) Biomolecular interaction analysis using surface plasmon resonance technology (SPR) was performed on a Biacore T200 system (GE Healthcare) and binding to human FcRn extracellular domain determined. Human FcRn extracellular domain was provided as a non-covalent complex between the human FcRn alpha chain extracellular domain (SEQ ID NO: 21) and β2 microglobulin (β2M) (SEQ ID NO: 23). Affinipure F(ab′)₂ fragment goat anti-human IgG, F(ab′)₂-specific (Jackson ImmunoResearch Lab, Inc.) at 50 μg/ml in 10 mM NaAc, pH 5 buffer was immobilized on a CMS Sensor Chip via amine coupling chemistry to a capture level between 4000-5000 response units (RU) using HBS-EP⁺(GE Healthcare) as the running buffer.
(§2) The antibody, 1735h5.hFab-scFv.768 was diluted to 0.25 μg/ml in running buffer and an injection 60 s at 10 μl/min was used for capture by the immobilized anti-human F(ab)₂. […] The surface was regenerated at 10 μl/min by 2×60 s 50 mM HCl for the running buffer at pH6 or by 60 s 40 mM HCl and 30 s 10 mM NaOH for the running buffer at pH7.4. The data was analysed using Biacore T200 evaluation software (version 1.0) using the 1:1 binding model with local Rmax.

For test [2], the target named is T2, Cynomolgus monkey FcRn extracellular domain (non-covalent complex of Cynomolgus monkey FcRn alpha chain … (Cynomolgus monkey, UniProt Q8SPV9 24-297; Q8SPW0 21-119).
T2 construct: also called non-human primate FcRn
Nature of the test: SPR Biacore T200, binder captured via anti-human F(ab')2, cyno FcRn ECD as analyte, pH6; pH 6. On the procedure: (§3) Biomolecular interaction analysis using surface plasmon resonance technology (SPR) was performed on a Biacore T200 system (GE Healthcare) and binding to Cynomolgus monkey FcRn extracellular domain determined. Cynomolgus monkey FcRn extracellular domain was provided as a non-covalent complex between the Cynomolgus monley FcRn alpha chain extracellular domain (SEQ ID NO: 17) and […] (β2M) (SEQ ID NO: 18). Affinipure F(ab′)₂ fragment goat anti-human IgG, F(ab′)₂-specific (Jackson ImmunoResearch Lab, Inc.) at 50 μg/ml in 10 mM NaAc, pH 5 buffer was immobilized on a CMS Sensor Chip via amine coupling chemistry to a capture level between 4000-5000 response units (RU) using HBS-EP⁺ (GE Healthcare) as the running buffer.
(§4) The antibody, 1735h5.hFab-scFv.768 diluted to0.5 μg/ml in running buffer and an injection of 60 s at 10 μl/min was used for capture by the immobilized anti-human F(ab′)₂. […] The surface was regenerated at 10 μl/min by 2×60 s 50 mM HCl for the running buffer at pH6 or by 60 s 40 mM HCl and 30 s 10 mM NaOH for the running buffer at pH7.4.
(§5) The data was analysed using Biacore T200 evaluation software (version 1.0) using the 1:1 binding model with local Rmax.

Test [3] deals with T2, Cynomolgus monkey FcRn extracellular …. In words: SPR Biacore T200, binder captured via anti-human F(ab')2, cyno FcRn ECD as analyte, pH7.4; pH 7.4. Here is the method:
as §3, §4, §5
(In general: In SPR one partner is held on a chip, and binding of the other changes the refractive index at the surface.)

Test [4] concerns the target T1, Human FcRn extracellular domain …. Nature of the test: SPR Biacore T200, binder captured via anti-human F(ab')2, FcRn ECD as analyte, pH6, average of 5; pH 6. Here is the method: as §1, §2
Test [5] shares this target. In words: SPR Biacore T200, binder captured via anti-human F(ab')2, FcRn ECD as analyte, pH7.4, average of 5; pH 7.4. On the procedure: as §1, §2
The target in test [6] is T2, Cynomolgus monkey FcRn extracellular …. Nature of the test: SPR Biacore T200, binder captured via anti-human F(ab')2, cyno FcRn ECD as analyte, pH6, average of 5; pH 6. Here is the method: as §3, §4, §5
Test [7] has the same target. Nature of the test: SPR Biacore T200, binder captured via anti-human F(ab')2, cyno FcRn ECD as analyte, pH7.4, average of 5; pH 7.4. Here is the method:
as §3, §4, §5

In general, kon refers to a measure of how fast the partners come together. For orientation: Kd means the free concentration of one partner at which half of the binding sites on the other are occupied at equilibrium, for simple one-to-one binding. In general, koff refers to a measure of how fast the partners let go of each other.

B1: 1735h5.hFab-scFv.768 (bispecific antibody)
heavy: EVQLVESGGGLVQPGGSLRLSCAASGFSLSTYGVGVGWVRQAPGKGLEWLANIWWDDDKRYNPSLENRFTISRDNAKNSAYLQMNSLRAEDTAVYYCARTPAYYGSHPPFDYWGQGTMVTVSSASTKGPSVFPLAPSSKSTSGGTAALGCLVKDYFPEPVTVSWNSGALTSGVHTFPAVLQSSGLYSLSSVVTVPSSSLGTQTYICNVNHKPSNTKVDKKVEPKSCSGGGGTGGGGSEVQLLESGGGLVQPGGSLRLSCAVSGIDLSNYAINWVRQAPGKCLEWIGIIWASGTTFYATWAKGRFTISRDNSKNTVYLQMNSLRAEDTAVYYCARTVPGYSTAPYFDLWGQGTLVTVSSGGGGSGGGGSGGGGSGGGGSDIQMTQSPSSVSASVGDRVTITCQSSPSVWSNFLSWYQQKPGKAPKLLIYEASKLTSGVPSRFSGSGSGTDFTLTISSLQPEDFATYYCGGGYSSISDTTFGCGTKVEIKRT
light: DIQMTQSPSSLSASVGDRVTITCRTSEDIYTNLAWYQQKPGKVPKLLIYVAKTLQEGVPSRFSGSGSGTHYTLTISSLQPEDVATYYCLQGFKFPWTFGGGTKVEIKRTVAAPSVFIFPPSDEQLKSGTASVVCLLNNFYPREAKVQWKVDNALQSGNSQESVTEQDSKDSTYSLSSTLTLSKADYEKHKVYACEVTHQGLSSPVTKSFNRGEC
notes: Anti-FcRn Fab (1638.g49 V-regions) fused at the C-terminus of CH1 to an anti-albumin disulphide stabilised scFv; expressed in CHO DG44; Monovalent for FcRn; also called Fab-dsscFv fusion protein comprising the 1638.g49 variable domains; anti-hFcRn 1735h5.hFab-scFv.768
With B1, the on-rate (kon) was 1.2e+06 M⁻¹ s⁻¹ and 1.1e+06 M⁻¹ s⁻¹ (3×) in test [1]; 1.26e+06 M⁻¹ s⁻¹ and 1.24e+06 M⁻¹ s⁻¹ in test [2]; 1e+06 M⁻¹ s⁻¹ (2×) and 999000 M⁻¹ s⁻¹ in test [3]; 1.13e+06 M⁻¹ s⁻¹ in test [4]; 861000 M⁻¹ s⁻¹ in test [5]; 1.25e+06 M⁻¹ s⁻¹ in test [6]. The kon in test [7] worked out at 1e+06 M⁻¹ s⁻¹. Moreover, the Kd is 0.16 nM in test [4], 0.0458 nM in test [5], 0.158 nM in test [6] and 0.045 nM in test [7]. In addition, the off-rate constant (koff) was found to be 0.000181 s⁻¹ in test [4], 3.94e-05 s⁻¹ in test [5], 0.000197 s⁻¹ in test [6] and 4.52e-05 s⁻¹ in test [7].
